From publication PMC10786891, “Massively parallel profiling of RNA-targeting CRISPR-Cas13d” come the findings set out here.

Changes are numbered by the printed parent chain. Names may count otherwise.

B1: target 1 insA 3' of 15,insC 3' of 5 (mixed)
RNA 1: CACCCGUGCAAAAAUGCAGGGGUCUAAAACUGAGCGGAUAACCUCUCUAUGG
RNA 2: GGGAAUGGAUCCACAUCUACGAAUUCGUACCAUAGAGAAGGUUAUCCGCCUCACCGAGAUCGGAAGAGCACACGU
B2: target 1 insC 3' of 14,insU 3' of 14 (mixed)
RNA 1: B1 RNA 1
RNA 2: B1 RNA 2 with A39C, G40U, U42G, A44U, U45A, C46U, G48C, C49G
B3: target 1 C2U,G15U (mixed)
RNA 1: B1 RNA 1
RNA 2: GGGAAUGGAUCCACAUCUACGAAUUCGUACCAUAGAUAGGUUAUCCGCUUACCGAGAUCGGAAGAGCACACGU
B4: target 3 complement block 2-6 (mixed)
RNA 1: CACCCGUGCAAAAUUGCAGGGGUCUAAAACGACCUGAAUAUUUCAGAUCAAA
RNA 2: GGGAAUGGAUCCACAUCUACGAAUUCGUUUUUGAUCUGAAAUAUUGUCCACUGCAGAUCGGAAGAGCACACGU
B5: target 3 insG 3' of 9,insG 3' of 6 (mixed)
RNA 1: B4 RNA 1
RNA 2: GGGAAUGGAUCCACAUCUACGAAUUCGUUUUUGAUCUGAAAUAGUUCGAGGUCUGCAGAUCGGAAGAGCACACGU
B6: target 3 insU 3' of 5 (mixed)
RNA 1: B4 RNA 1
RNA 2: GGGAAUGGAUCCACAUCUACGAAUUCGUUUUUGAUCUGAAAUAUUCAUGGUCUGCAGAUCGGAAGAGCACACGU
B7: target 3 G4C,U22A (mixed)
RNA 1: B4 RNA 1
RNA 2: B4 RNA 2 with U30A, G46C, U47A, C49G, A50U
B8: target 3 U2C,A5C (mixed)
RNA 1: B4 RNA 1
RNA 2: B4 RNA 2 with G46C, U47C, C48G, C49G, A50C
B9: target 3 A11C,G14A (mixed)
RNA 1: B4 RNA 1
RNA 2: B4 RNA 2 with G38A, A41C, G46C, U47A, C48G, C49G, A50U
B10: target 3 insC 3' of 11,insA 3' of 10 (mixed)
RNA 1: B4 RNA 1
RNA 2: B5 RNA 2 with U42C, A43U, G44A, U45A, C47U, G48C
B11: target 3 C6A,U8G (mixed)
RNA 1: B4 RNA 1
RNA 2: B4 RNA 2 with U44G, G46A, U47A, C48G, C49G, A50U
B12: target 3 insU 3' of 6,insA 3' of 2 (mixed)
RNA 1: B4 RNA 1
RNA 2: B5 RNA 2 with G44U, U46C, C47U, G48A, A49G, G51U, U52A
B13: target 3 insG 3' of 6,insU 3' of 5 (mixed)
RNA 1: B4 RNA 1
RNA 2: B5 RNA 2 with G44U, U46C, C47G, G48A, A49U
B14: target 3 insG 3' of 8,insA 3' of 2 (mixed)
RNA 1: B4 RNA 1
RNA 2: B5 RNA 2 with G44U, U45G, G48A, A49G, G51U, U52A
B15: target 3 U2A,A5U (mixed)
RNA 1: B4 RNA 1
RNA 2: B4 RNA 2 with G46C, C48G, C49G
B16: target 3 insA 3' of 21,insA 3' of 4 (mixed)
RNA 1: B4 RNA 1
RNA 2: GGGAAUGGAUCCACAUCUACGAAUUCGUUUUAUGAUCUGAAAUAUUCAGAGUCUGCAGAUCGGAAGAGCACACGU
B17: target 3 insU 3' of 6 (mixed)
RNA 1: B4 RNA 1
RNA 2: B6 RNA 2 with A47U, U48A
B18: target 3 A18G,U22G (mixed)
RNA 1: B4 RNA 1
RNA 2: B4 RNA 2 with U30G, A34G, G46C, U47A, C48G, C49G, A50U
B19: target 3 G4C,C6A (mixed)
RNA 1: B4 RNA 1
RNA 2: B4 RNA 2 with G46A, U47A, C49G, A50U
B20: target 3 insG 3' of 16,insU 3' of 1 (mixed)
RNA 1: B4 RNA 1
RNA 2: GGGAAUGGAUCCACAUCUACGAAUUCGUUUUUGAUCGUGAAAUAUUCAGGUCUUGCAGAUCGGAAGAGCACACGU
B21: target 3 insA 3' of 7,insA 3' of 4 (mixed)
RNA 1: B4 RNA 1
RNA 2: B5 RNA 2 with G44U, U46A, G48A, A49G, G50A
B22: target 3 insA 3' of 8,insA 3' of 8 (mixed)
RNA 1: B4 RNA 1
RNA 2: B5 RNA 2 with G44U, U45A, U46A, C47U, G48C
B23: target 3 insC 3' of 9,insA 3' of 3 (mixed)
RNA 1: B4 RNA 1
RNA 2: B5 RNA 2 with G44C, G48A, A49G, G51A
B24: target 3 insC 3' of 7,insG 3' of 5 (mixed)
RNA 1: B4 RNA 1
RNA 2: B5 RNA 2 with G44U, U46C, G48A, A49G
B25: target 3 A11G,U22A (mixed)
RNA 1: B4 RNA 1
RNA 2: B4 RNA 2 with U30A, A41G, G46C, U47A, C48G, C49G, A50U
B26: target 3 insC 3' of 13,insU 3' of 5 (mixed)
RNA 1: B4 RNA 1
RNA 2: B5 RNA 2 with A40C, U42A, A43U, G44A, G48A, A49U

The data set has as its target T1, EsCas13d, nuclease-dead (Eubacterium siraeum, UniProt B0MS50, R295A;H300A;R849A;H854A).
T1 sequence: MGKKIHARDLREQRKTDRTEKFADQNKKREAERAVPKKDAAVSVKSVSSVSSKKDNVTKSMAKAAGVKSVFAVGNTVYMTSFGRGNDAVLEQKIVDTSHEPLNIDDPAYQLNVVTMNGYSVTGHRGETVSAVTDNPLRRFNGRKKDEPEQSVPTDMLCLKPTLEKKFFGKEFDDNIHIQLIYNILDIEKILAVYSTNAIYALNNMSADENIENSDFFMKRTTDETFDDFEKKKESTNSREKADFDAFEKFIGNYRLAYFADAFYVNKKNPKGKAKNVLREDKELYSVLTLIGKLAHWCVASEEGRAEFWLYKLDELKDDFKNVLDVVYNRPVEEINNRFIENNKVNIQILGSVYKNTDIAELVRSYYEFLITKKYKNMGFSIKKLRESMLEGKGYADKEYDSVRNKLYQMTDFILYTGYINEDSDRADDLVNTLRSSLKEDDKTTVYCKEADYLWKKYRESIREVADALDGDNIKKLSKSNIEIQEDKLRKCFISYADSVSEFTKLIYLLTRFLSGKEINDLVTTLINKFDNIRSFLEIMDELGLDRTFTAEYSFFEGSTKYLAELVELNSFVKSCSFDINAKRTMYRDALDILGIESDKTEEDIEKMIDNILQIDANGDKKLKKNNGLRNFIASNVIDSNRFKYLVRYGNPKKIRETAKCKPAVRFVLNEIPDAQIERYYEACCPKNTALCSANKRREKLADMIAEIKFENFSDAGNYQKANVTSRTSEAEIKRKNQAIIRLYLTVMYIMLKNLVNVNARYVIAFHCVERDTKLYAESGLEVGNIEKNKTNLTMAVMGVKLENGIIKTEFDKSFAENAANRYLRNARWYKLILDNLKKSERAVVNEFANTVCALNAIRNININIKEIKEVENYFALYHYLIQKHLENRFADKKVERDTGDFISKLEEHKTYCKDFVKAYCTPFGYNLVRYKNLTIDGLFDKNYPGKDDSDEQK
Briefly: crRNA (strand 1, pre-loaded); Mg2+; 40 mM Tris-HCl pH 7.5, 150 mM NaCl, 6 mM MgCl2, 1 mM DTT, 0.1% Tween-20, 0.2 mg/ml BSA; 25 C; 10 min per concentration, then washed. The conditions noted are these: tags: His6-TwinStrep-SUMO cleaved; N-terminal SNAP kept (SNAP-Surface 488); label: 3' end held by stalled T7 RNA polymerase.
In turn, B1 registered a Kd of 16.7 ± 1.4 nM.

The molecule B2 gave a Kd of 50 ± 12 nM.

On to B3, for which the Kd was 29 ± 4 nM.

B4: the dissociation constant Kd was 58.5 ± 9 nM.

On to B5, for which binding was put at a Kd of 71 ± 10 nM.

For B6, binding was put at a Kd of 6.55 ± 0.65 nM.

Consider B7, for which binding was put at a Kd of 10.7 ± 1 nM.

In the case of B8, the Kd stood at 105 ± 18.5 nM.

Consider B9, for which the Kd was 51 ± 10 nM.

For B10, binding was put at a Kd of 46.5 ± 16.5 nM.

B11 had a Kd of 65 ± 7.5 nM.

Regarding B12, the equilibrium dissociation constant (Kd) was found to be 47 ± 14 nM.

On to B13, for which the Kd came to 7.59 ± 0.605 nM.

B14: binding was characterised by a dissociation constant (Kd) of 67.5 ± 17 nM.

B15 yielded a Kd of 7.35 ± 1.15 nM.

In turn, B16 registered a dissociation constant (Kd) of roughly 81.5 nM.

The molecule B17 displayed a Kd of 17.3 ± 1.35 nM.

Consider B18, for which binding was put at a Kd of 64 ± 10 nM.

Regarding B19, binding was characterised by a dissociation constant (Kd) of 26.6 ± 1.85 nM.

With B20, the equilibrium dissociation constant (Kd) was found to be 74 ± 24 nM.

B21 had a dissociation constant Kd of 66 ± 12 nM.

B22: binding was put at a Kd of 63 ± 8.5 nM.

B23 returned a Kd of 83.5 ± 14 nM.

As for B24, binding was characterised by a dissociation constant (Kd) of 58.5 ± 9.5 nM.

In turn, B25 returned an equilibrium dissociation constant (Kd) of 67 ± 15 nM.

For B26, binding was characterised by a dissociation constant (Kd) of 100 ± 40 nM.

For orientation: Kd means the concentration at which binding is half-saturated.
